Experiment: soluble on expression in E. coli; label from the status in PepcDB or PDB records

Q: Which “soluble on expression in E. coli” value does the source give for “KQQLTEDGDSFLHLAIIHEEKALTMEVIRQVKGDLAFLNFQNNLQQTPLHLAVITNQPEIAEALLGAGCDPELRDFRGNTPLHLACEQGCLASVGVLTQSCTTPHLHSILKATNYNGHTCLHLASIHGYLGIVELLVSLGADVNAQEPCNGRTALHLAVDLQNPDLVSLLLKCGADVNRVTYQGYSPYQLTWGRPSTRIQQQLGQLTLENLQMLPESEDEESYDTESEFTEFTEDE” here?
A: Its value is “soluble”.

Q: With “MGSDKIHHHHHHMDAHRYCQERAAASGSSFYYSFVFLPTEVRRAITAFYALCRELDDVVDECHERQLAELKLAWWREEIGRFAAGAATHPATRALADTARGASVQPALLLEIVDGMAMDLEHARYADFRALKLYCHRAASVVGEIAAGIFEGARGEHDREVRRYAHELGLAFQLTNIIRDVGEDARRGRIYLPLDEMARFGVAEADVLEGRDTPAFRALMQFQYERAVAHYERALATLPSAARRAQRPGLVMAAIYRSLLDEIRRDGFPVLRARIALTPLRKLWLASRTWLFP” as the sequence, how does the “soluble on expression in E. coli” value read?
A: The value was “not soluble”.

Q: For “MEYKDATHTTATQTVHYVNQDGDKVFDDDTSQTLNYERGVTIDEVTGEVISYGDWTPVDGDEFGSVTSPDKPGYAVDTKVVSGEKPEITNGKDGKVNDVEVTVTYTASNEDATLEHHHHHH”, which “soluble on expression in E. coli” value is on record?
A: Its value is “soluble”.

Q: Which “soluble on expression in E. coli” value does the source give for “MSIQNISFLGAGSIAEAIIGGLLHANVVKGEQITVSNRSNETRLQELHKKYGVKGTHNKKELLTDANILFLAMKPKDVAEALTPFKEYINNNVLIISLLAGVSTDSIRKLLQKDVPIIRAMPNTSAAILKSATAISPSKHATAEHIRTATSLFETIGLVSVVEEEDMHAVTALSGSGPAYIYYVVEAMEEAAKKIGLKEDVAKSLILQTMIGAAEMLKASDKHPSILRKEITSPGGTTEAGIEVLQEHKFQQALISCITQATKRSHNLGKTLEQLTKEKLEHHHHHH” here?
A: Its value is “soluble”.

Q: With “MAIKGPRKHLKRLAAPANWQLPRKVKTFTVRPSPGPHSMDKSLPLLLVVRDVLKYADNAREAKKIIQTGKILIDGLKRKEYKHPAGLMDVLSIPEMDETYLVLFDESGRISLKKTDKTDVKLCKIVNKTVVKGGNIQLNLHDGRNQIVKVSDAAKAEEDVYKTGDSVLISIPEQSIAGHVAFGEGKLAYITGGKHVGEFAKIVEVENRALYSDIVTLENKDGEKFKTVKPYVFIVGQDEPVISMLEHHHHHH” as the sequence, how does the “soluble on expression in E. coli” value read?
A: The value was “soluble”.

Q: For “MFGKYKVSVIIPAYNEEKRIGNVLARIPDFVDEVIVIDDGSSDATYEVAKRYTDKAIRLNKNMGKGAALREGLRHASGDIIVFMDADGQHNPKEIPKLLEPIIKGKADFVIGKRIIKTGKRPLPRKLSNFITTTLIRLKTKQRIEDSQSGFRAIRREFVPEITSDRYEVETEVLIKAVKKGARITEVPVSTRYDLKTGKFRVEDIIRFLIALIKSLEHHHHHH”, which “soluble on expression in E. coli” value is on record?
A: Its value is “not soluble”.

Q: For “MGSDKIHHHHHHMSNNSKISWTTTTWNVTAGCDPISDGCKNCYARMMAERLKAMGQAKYQNGFIPTIHSECLNEPFGWKGNKLVFVVSMGDLFHKDIPFDFIDKVIEVITKCPQHTFQILTKRAERMYEYFSTHAIPENVWLGVTVENQKVKGRIDYLKKLDAPVRFLSCEPLLEDLGTLDLSDIDWVIVGGESGNRARKVEKDWILNIKSQCDASTSTAFFFKQWGTWGADGVKRSAKENGCLLDGKEYHAYPTPRKIKP”, which “soluble on expression in E. coli” value is on record?
A: The value was “not soluble”.

Q: Which “soluble on expression in E. coli” value does the source give for “MSQIEKKQLQLGYIPLLDCIALLWAKERGYFEEMGLDVTLVKEASWASLRDRLAFGILDAAHCLSAMLPAAAIGEDQIGIPLKTPLVLSKNRAYISLSQKLCYELSIQNADNAQENSAKLVKYLEQEQSIALAHVFHHSIHHYCLREWLALSHLDLAKAIQLKTLPPPYMLDALASASIDGFCVGEPWNTQGEIEGYSQIVASSRDIIPEVADKVLAVTEEWAAHHPNTVIALTAAILKAQQELETLSNLEPVWQILINFNIVRFQCSKSVHVKSYHALEQIIRHLVVGQAAPCSEDMLWLFGQMQKWHDLTIETTALNELSQRCIDQNSFEKAMQHVQSNTGLEHHHHHH” here?
A: The value was “not soluble”.

Q: With “QDFPQSLIIDSFLVNDGKTRGLNLHLDRFRTACLEHGYAHHEQLDAFFAEALRSIPATGQWFPRLEATPTELRIALRPAPQLRGTTTLTSVAAVRPTPKYKGLDLDYLAELRCSSTTDDALLVTPAGVIAETTTAAIIAWDGTKWMSMAPARLESVTESLLINSARAQGEMVVTAALTVPEAQKLNLWAVNSLHGVTPVTHIDEVALPSNPQRSALLRGWLSQSEENIAQV” as the sequence, how does the “soluble on expression in E. coli” value read?
A: The value was “not soluble”.

Q: Which “soluble on expression in E. coli” value does the source give for “MGSDKIHHHHHHMRIDIDSFNVLQVLVEEGSFAKASERLHKAQSAVSYQVKKLEQHLGVTLFNRDKYRAELTPEGKVILIEGQRLLEQLANIEHLASRFSQGWEPKLELVIDGSLPMEPIMTALKRMSEHNVPTKIQLNMEFLGGVQHRFERDKADLMLVKDYRSGPYYDAKPLPSITSVLVVANSHPLALSKAVSLSQLQQHVELTIEDSSPSRLGRDELQFGGDKVFYLSGFIMKKNALLKGLGFGWMPDFLIGEELAAGELVMVDFMGGSRFNYTPQLVSTLARPLGRAGQLFTELILQEFDLFHQDLADGSSGSGLG” here?
A: The value was “not soluble”.

Q: Which “soluble on expression in E. coli” value does the source give for “MNLLIDNWIPVRPRNGGKVQIINLQSLYCSRDQWRLSLPRDDMELAALALLVCIGQIIAPAKDDVEFRHRIMNPLTEDEFQQLIAPWIDMFYLNHAEHPFMQTKGVKANDVTPMEKLLAGVSGATNCAFVNQPGQGEALCGGCTAIALFNQANQAPGFGGGFKSGLRGGTPVTTFVRGIDLRSTVLLNVLTLPRLQKQFPNESHTENQPTWIKPIKSNESIPASSIGFVRGLFWQPAHIELCDPIGIGKCSCCGQESNLRYTGFLKEKFTFTVNGLWPHPHSPCLVTVKKGEVEEKFLAFTTSAPSWTQISRVVVDKIIQNENGNRVAAVVNQFRNIAPQSPLELIMGGYRNNQASILERRHDVLMFNQGWQQYGNVINEIVTVGLGYKTALRKALYTFAEGFKNKDFKGAGVSVHETAERHFYRQSELLIPDVLANVNFSQADEVIADLRDKLHQLCEMLFNQSVAPYAHHPKLISTLALARATLYKHLRELKPQGGPSNG” here?
A: Its value is “soluble”.

Q: Which “soluble on expression in E. coli” value does the source give for “GDAFVGTWKLVSSENFDDYMKEVGVGFATRKDAGMAKPNMIISVNGDLVTIRSESTHKNTEISFKLGVEFDEITADDRKVKSIITLDGGALVQVQKWDGKSTTIKRKRDGDKLVVECVMKGVTSTRVYERA” here?
A: Its value is “soluble”.

Q: With “SLFNPNELKMDFLKRPVTHSFLKLEIMPYKSAFNLRMRENIQSYYKQALRGWGSFEDELLGLKNTLKNLPLYQTLKIKPKKINAPICVVGNGPSLDLLLDFLKENEKNCIIFSCGTALKPLKTHGVKVDFQIEVERIDYLKEVLENAPLEDTPLMGANMLNPNAFNVAKEALMFMRGGSACAYISPLSIEYAAPLVGNAGVALAGLMSDEIYLCALDCAYIKGFKKHAQNSYYGDEKEIDTSSLISVEGNFKGYETFSDSLFLLSKERIEEALNHYQPKKVYNLSYGAKIKHAVSLNYSQVKL” as the sequence, how does the “soluble on expression in E. coli” value read?
A: The value was “not soluble”.

Q: With “MSIIKKIVFKRFNSTLKKTALHDLHVSLGGTMVPYAGYSMPVLYKGQTHIESHNWTRTNAGLFDVSHMLQSKLSGPHSVKFLQRVTPTDFNALPVGSGTLSVLLNPQGGVVDDTIITKENDDNEFYIVTNAGCAERDTEFFHDELQNGSTLDCQWKIIEGRSLLALQGPKAKDVLEPLLSKTAPGKDLKELFFGQRHEFALKDGSLVQIARGGYTGEDGFEISIANEKAVEFAEQLLANPVMKPIGLAARDSLRLEAGMCLYGHELDESITPVEAALNWVISKSRRDLVDQKYWFNGYAKIMDQLNNKTYSKVRVGFKYLKKGPAARNGVKIFLPDAETEVGLVTSGSASPTLNNINIGQAYVQKGYHKKGTKLLVQVRNKFYPIELAKMPLVPTHYYKQ” as the sequence, how does the “soluble on expression in E. coli” value read?
A: Its value is “not soluble”.

Q: With “MFDVVAVGELLIDFLPAGTNENGMPLFSSNPGGAPANVLAMLSKLGAKTAFIGKVGKDGFGQFLKATLDNAGIDTSNLLMSSSEMTTLAFVHLNEKGDRSFSFYRKHCADVSLDAGELDKDLLRTCHFLHFGAVSLTDEPSRTATLEAARIAKEAGAIISYDPNYRPALWSNEHEARKYMLKAVEYADLVKVSEEELWLLAESEDFSKGAHKLLAMGPSVVFVTCGEKGSYVFTGSCKANHCGYDVKVVDTTGAGDAFVGAMLWQLRGMSLEEISQICEQKWGELLAFSNAAGTIVATKKGAIPAMPDLDTINTFMRQFLEEK” as the sequence, how does the “soluble on expression in E. coli” value read?
A: Its value is “soluble”.

Q: For “MSLNDNPAWFNNPRKRAIPNSIIKRSNGQSLSPVRSDSADVPAFSNSNGFNNVTFGSKKDPRILKNVSPNDNNSANNNAHSSDLGTVVFDSNEAPPKTSLADWQKEDGIFSSKTDNIEDPNLSSNITFDGKPTATPSPFRPLEKTSRILNFFDKNTKTTPNTASSEASAGSKEGASTNWDDHAIIIFGYPETIANSIILHFANFGEILEDFRVIKDFKKLNSKNMSKSPSLTAQKYPIYTGDGWVKLTYKSELSKSRALQENGIIMNGTLIGCVSYSPAALKQLASLKKSEEIINNKTSSEGHHHHHH”, which “soluble on expression in E. coli” value is on record?
A: Its value is “soluble”.

Q: Which “soluble on expression in E. coli” value does the source give for “MADKKAPAAGWPVANGEYVVGNPESCVAVITLGSHGLDQAAIDAGAAISGPCHTENLGIEKVVANYISNPNIRFMVIAGSEVQGHITGQCIKALYENGIGDDGGIIGAKGAIPFMENVGKEPVGRLQTQVVECIDLIDVEDKGKIADAIKNCISKDPGAFEEDPMVIELEGGAAAAGDEEGGLMIEGIPTVAEPDIESIKSLNEALDYKVGLMTRDLGLASGVQTETVTG” here?
A: Its value is “not soluble”.

Q: With “MQIFLLGLDNTTHTLDVDASTTLSAIKGVIGAGEEFSISYGSKVLSEELTLGECQIESLSTLSVNGRLLGGKVHGSLARAGKVRAQTPKVDKQDKKKKKRGRAFRRVQYTRRYVNVASGPGKKRGPNSNS” as the sequence, how does the “soluble on expression in E. coli” value read?
A: The value was “not soluble”.

Q: For “MGSDKIHHHHHHMDQSFQVNLNRLRYFHAILEHGSIRAAAERLNTAPSVVSRQLQLLESEIGAPLFERRQHGMIATEAATLLVEYTHACRIGLEQFHESLHGELRGRVEIALTVGYVEDLMDSVITGFLHRHPHVAVELNVRTADGVVDDVLRKRAHIGLTYNPSLPPEIRECLSVEHPTFLAVAPDHPLAKRGEPLELRDAVRYPLALMPAPYYGVGQIVHTVAHAENIPLAPRLVTNSVPAMRRFVRSGNGVAFLTRLLVEDDLERGEIVALRMRNPLFNSPCGKVLVHNERALPRAANEILARIVRDLPSFKS”, which “soluble on expression in E. coli” value is on record?
A: The value was “not soluble”.

Q: For “MGHHHHHHSHTVCSLSSGKFGTLLSGSWDTTAKVWLNDKCMMTLQGHTAAVWAVKILPEQGLMLTGSADKTVKLWKAGRCERTFSGHEDCVRGLAILSETEFLSCANDASIRRWQITGECLEVYYGHTNYIYSISVFPNCRDFVTTAEDRSLRIWKHGECAQTIRLPAQSIWCCCVLDNGDIVVGASDGIIRVFTESEDRTASAEEIKAFEKELSHATIDSKTGDLGDINAEQLPGREHLNEPGTREGQTRLIRDGEKVEAYQWSVSEGRWIKIGDVVGS”, which “soluble on expression in E. coli” value is on record?
A: Its value is “not soluble”.

Q: Which “soluble on expression in E. coli” value does the source give for “MGSDKIHHHHHHMDLYFVKFRVTSKLTSEIVQGYFLGKLNQIPEYDFFVIPGRYARKYSVDLNLGFEDFLEDFKAKKESALKEVLEASAITDEFFDFWLIQSRKQNLRLVGSEFFRLVESGDHEALRVFIADLFREWSEKLEVEVVGVPLDYEDVSLEVVKEHFEELSTDEVFKLFQREDLRNLPEVFPVLDPLNGVTIREIDVEERIDFVILNYGNEEFSEKFKRFLKEKFGTENVASLPGKVLSKEIVKTREGTLYLLKVEFEEGIIGKAIVSPNLKIKRGESRVKISDEEWMEKIGEMLKEGEESKQEKLKLRNSPQPVQKTTSSD” here?
A: Its value is “not soluble”.

Q: For “MTIENDYAKLKELMEFPAKMTFKVAGINREGLAQDLIQVVQKYIKGDYIPKEKRSSKGTYNSVSIDIIAENFDQVETLYKELAKVEGVKMVI”, which “soluble on expression in E. coli” value is on record?
A: The value was “not soluble”.

Reference: the DeepSol protein solubility set
